Experimental data from the supplement of paper PMC9112550, “Optimization of the antimicrobial peptide Bac7 by deep mutational scanning” (BMC Biology, 2022).

System: Escherichia coli TOP10
Experiment: shrunken log2 fold change of peptide-encoding DNA abundance (4.5 h post-induction vs induction); higher = less antimicrobial activity (less host growth inhibition)
Settings: time post-induction: 4.5 h; library: site-saturation at positions 5, 18, 19, 20
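Note: peptides expressed intracellularly from a pBAD plasmid library in pooled LB shake-flask culture, induced with 0.3% L-arabinose, DNA abundance read by NGS, three biological replicates, DESeq2 with apeglm shrinkage.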

Sequence | shrunken log2 fold change
RRIRERPPRLPRPRPRPRDKPRP | -0.187
RRIRPRPPRLPRPRPRPQLRPRP | -0.0759
RRIRQRPPRLPRPRPRPQNMPRP | -0.506
RRIRLRPPRLPRPRPRPTPFPRP | 0.253
RRIRARPPRLPRPRPRPNRHPRP | 0.0991
RRIRDRPPRLPRPRPRPTNYPRP | -0.48
RRIRMRPPRLPRPRPRPPQQPRP | 0.945
RRIRHRPPRLPRPRPRPMYAPRP | -0.0133
RRIRTRPPRLPRPRPRPWYGPRP | -0.379
RRIRVRPPRLPRPRPRPLCSPRP | -0.0335
RRIRQRPPRLPRPRPRPIFRPRP | 0.0716
RRIRLRPPRLPRPRPRPVNRPRP | 0.199
RRIRLRPPRLPRPRPRPMSMPRP | 0.125
RRIRWRPPRLPRPRPRPHPPPRP | 0.348
RRIRYRPPRLPRPRPRPAIHPRP | -0.406
RRIRERPPRLPRPRPRPKYQPRP | -0.601
RRIRPRPPRLPRPRPRPKIHPRP | -0.427
RRIRNRPPRLPRPRPRPGMYPRP | -0.242
RRIRTRPPRLPRPRPRPYLPPRP | -0.513
RRIRKRPPRLPRPRPRPKWTPRP | 0.198
RRIRPRPPRLPRPRPRPGIGPRP | 0.208

Sequence | shrunken log2 fold change
RRIRQRPPRLPRPRPRPDGMPRP | -0.199
RRIRERPPRLPRPRPRPINYPRP | -0.286
RRIRCRPPRLPRPRPRPLEVPRP | -0.174
RRIRARPPRLPRPRPRPKAFPRP | 0.269
RRIRWRPPRLPRPRPRPTNWPRP | 0.206
RRIRRRPPRLPRPRPRPVRVPRP | 0.791
RRIRTRPPRLPRPRPRPGNSPRP | -0.169
RRIRRRPPRLPRPRPRPCLWPRP | 0.407
RRIRHRPPRLPRPRPRPNNMPRP | -0.674
RRIRERPPRLPRPRPRPHIEPRP | 0.0737
RRIRFRPPRLPRPRPRPLSDPRP | 0.207
RRIRSRPPRLPRPRPRPTNYPRP | -0.44
RRIRARPPRLPRPRPRPGTTPRP | 0.143
RRIRQRPPRLPRPRPRPMVWPRP | -0.0183
RRIRWRPPRLPRPRPRPFLRPRP | 0.0966
RRIRCRPPRLPRPRPRPFCPPRP | -0.225
RRIRRRPPRLPRPRPRPNEMPRP | 0.245
RRIRMRPPRLPRPRPRPWWLPRP | 0.0657
RRIRKRPPRLPRPRPRPEQDPRP | 0.0646
RRIRWRPPRLPRPRPRPHSSPRP | -0.0864
RRIRFRPPRLPRPRPRPFDEPRP | -0.983

Sequence | shrunken log2 fold change
RRIRPRPPRLPRPRPRPAGYPRP | -0.189
RRIRERPPRLPRPRPRPILVPRP | 0.028
RRIRSRPPRLPRPRPRPYESPRP | -0.26
RRIRDRPPRLPRPRPRPFTAPRP | -0.128
RRIRTRPPRLPRPRPRPYETPRP | -0.00043
RRIRARPPRLPRPRPRPIYPPRP | -0.387
RRIRERPPRLPRPRPRPLPIPRP | -0.0301
RRIRNRPPRLPRPRPRPHKAPRP | 0.00883
RRIRNRPPRLPRPRPRPLHDPRP | -0.178
RRIRARPPRLPRPRPRPRRLPRP | 0.537
RRIRYRPPRLPRPRPRPNELPRP | -0.717
RRIRWRPPRLPRPRPRPVEYPRP | -0.00674
RRIRPRPPRLPRPRPRPTDGPRP | -0.0563
RRIRMRPPRLPRPRPRPWIGPRP | -0.0941
RRIRKRPPRLPRPRPRPEFIPRP | 0.146
RRIRWRPPRLPRPRPRPGNVPRP | -0.127
RRIRQRPPRLPRPRPRPTEPPRP | 0.00378
RRIRARPPRLPRPRPRPNHVPRP | -0.31
RRIRCRPPRLPRPRPRPEQIPRP | 0.259
RRIRLRPPRLPRPRPRPVTEPRP | 0.0237
